Test results as given in the Immune Epitope Database (IEDB).

Key:
HLA-A*01:01 = test: IEDB peptide-MHC binding, purified MHC/competitive/radioactivity; filed as Kd, often an IC50 or EC50 that approximates it; ≥ and ≤ were set here for values at or beyond the usual limits of such assays
HLA-A*03:01 [1] = test: as above; details: source organism: Homo sapiens
HLA-B*07:02 [2] = test: as above; details: source organism: Homo sapiens
HLA-A*02:01 = test: IEDB peptide-MHC binding, purified MHC/competitive/radioactivity; ≥ and ≤ were set here for values at or beyond the usual limits of such assays; details: source organism: Homo sapiens
HLA-A*03:01 [3] = test: as above; details: source organism: Homo sapiens
HLA-B*07:02 [4] = test: as above; details: source organism: Homo sapiens

Sequence	Kd (HLA-A*01:01; source organism: Homo sapiens) [µM]	Kd (HLA-A*03:01 [1]) [µM]	Kd (HLA-B*07:02 [2]) [µM]	IC50 (HLA-A*02:01) [nM]	Kd (HLA-A*01:01; source organism: Hepatitis B virus subtype adyw) [µM]	IC50 (HLA-A*03:01 [3]) [nM]	IC50 (HLA-B*07:02 [4]) [nM]
YLLPAIVHI	≥ 5	≥ 5	≥ 5	–	–	–	–
SLLPAIVEL	≥ 5	≥ 5	≥ 5	24	–	–	–
FLPSDFFPSV	–	–	–	–	≥ 5	–	–
EADPTGHSY	–	≥ 5	≥ 5	–	–	–	–
RVMAPRALL	≥ 5	–	–	–	–	905	4.6
LLDVPTAAV	4.31	≥ 5	≥ 5	–	–	–	–
